In the RNAGym collection of RNA variant scans (doi:10.1073/pnas.2313332121):

B1: TPR t1 (parent)
chain: GACCAAUCUGCCCUCAGAGCUCGAGAACAUCUUCGGAUGCAGAGGAGGCAGGCUUCGGUGGCGCGAUAGCGCCAACGUCCUCAACCUCCAAUGCAUCCCACCACAUGAUGAUGCCUGAAGAGCCUUGGUUUUUUG

Variants of: B1
Assay: polymerase ribozyme fitness, log enrichment relative to wild type (log ratio); higher = more active; in vitro selection for triplet polymerase activity
How it was run: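 In triplicate, a single round of in vitro selection was run on each mutant library, PCR-built and transcribed, covering one subunit of a heterodimeric triplet polymerase ribozyme. Frozen incubation at −7 °C followed annealing with a biotinylated primer, partner subunit and triplets, and extended constructs were then gel-excised, streptavidin-captured and taken through RT-PCR. Fitness is the logarithm of genotype enrichment over wild-type enrichment, from inverse-variance-weighted replicate averages of Illumina-sequenced inputs and outputs. […] only genotypes with ≥10 input reads and ≥1 read per output were kept.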

Variant | polymerase ribozyme fitness (log ratio)
GACCAAUCUGCCCUCAGAGCUCGAGAACAUCUUCGGAUGCAGAGGAGGCAGGCUUCGGUGGGGCGAUAGCGCCAACGUCCUCAACCUCCAAAGCAUCCCACCACAUGAUGAUGCCUGAAGAGCCUUGGUUUUUUG [C62G U92A] | -5.63
GACCAAUCUGCCCUCAGAGCUCGAGAACAUCUUCGGAUGCAGAGGAGGCAGGCUUCGGUGGGGCGAUAGCGCCAACGUCCUCAACCUCCAAUGCAUCCCACCACAAGAUGAUGCCUGAAGAGCCUUGGUUUUUUG [C62G U106A] | -1.16
GACCAAUCUGCCCUCAGAGCUCGAGAACAUCUUCGGAUGCAGAGGAGGCAGGCUUCGGUGGGGCGAUAGCGCCAACGUCCUCAACCUCCAAUGCAUCCCACCACAUGAUGAAGCCUGAAGAGCCUUGGUUUUUUG [C62G U112A] | -0.878
GACCAAUCUGCCCUCAGAGCUCGAGAACAUCUUCGGAUGCAGAGGAGGCAGGCUUCGGUGGGGCGAUAGCGCCAACGGCCUCAACCUGCAAUGCAUCCCACCACAUGAUGAUGCCUGAAGAGCCUUGGUUUUUUG [C62G U78G C88G] | -3.52
GACCAAUCUGCCCUCAGAGCUCGAGAACAUCUUCGGAUGCAGAGGAGGCAGGCUUCGGUGGUGCGAUAGCGCCAACGUCCUCAAACUCCAAUGCAUCCCAGCACAUGAUGAUGCCUGAAGAGCCUUGGUUUUUUG [C62U C85A C101G] | -3.99
GACCAAUCUGCCCUCAGAGCUCGAGAACAUCUUCGGAUGCAGAGGAGGCAGGCUUCGGUGGGGCGAUAGCGCCAACGUCCUCAACCUCCAAUGCAUCCCACCACAUGAUGAUGUCUGAAGAGCCUUGGUUUUUUG [C62G C114U] | -4.41
GACCAAUCUGCCCUCAGAGCUCGAGAACAUCUUCGGAUGCAGAGGAGGCAGGCUUCGGUGGUGCGAUAGCGCCAACGUCCUCAAACUCCAAUGCAUCCCACCACAGGAUGAUGCCUGAAGAGGCUUGGUUUUUUG [C62U C85A U106G C123G] | -1.11
GACCAAUCUGCCCUCAGAGCUCGAGAACAUCUUCGGAUGCAGAGGAGGCAGGCUUCGGUGGUGCGAUAGCGCCAACGUCCUCAACCUCCAAUGCAUCACACCACAUGAUGAUGCCUGAAGAGCCUUGGUUUUUUG [C62U C98A] | -5.51
GACCAAUCUGCCCUCAGAGCUCGAGAACAUCUUCGGAUGCAGAGGAGGCAGGCUUCGGUGGUGCGAUAGCGCCAACGUCCUCAACCUCCAAUGCAUCGCACCACAUGAUGAUGCCUCAAGAGCCUUGAUUUUCUG [C62U C98G G117C G128A U133C] | -5.87
GACCAAUCUGCCCUCAGAGCUCGAGAACAUCUUCGGAUGCAGAGGAGGCAGGCUUCGGUGGUGCGAUAGCGCCAACGUCCUCCACCUUCAAUGCAUCCCACCACAUGAUGAUGCCUGAAAAGCCUUGGUUUUUUG [C62U A83C C88U G120A] | 0.0358
GACCAAUCUGCCCUCAGAGCUCGAGAACAUCUUCGGAUGCAGAGGAGGCAGGCUUCGGUGGGGCGAUAGCGCCAACGUCCUCAACCUCCAAUGCAUCCCACCACAUGAUGAUGCGUGAAGAGCCAUGGUUUUUUG [C62G C115G U125A] | -3.31
GACCAAUCUGCCCUCAGAGCUCGAGAACAUCUUCGGAUGCAGAGGAGGCAGGCUUCGGUGGUGUGAUAGCGCCAACGUCCUCAACCUCCAAUGCAUCCCACCACAUGAUGAUGCCUGAAGAGACUUGAUUUUUUG [C62U C64U C123A G128A] | -1.1
GACCAAUCUGCCCUCAGAGCUCGAGAACAUCUUCGGAUGCAGAGGAGGCAGGCUUCGGUGGGGCGAUAGCGCCAACGUCCUCAACCUCCAAUGCAUCCCACCACAUGAUGAUGCCUGAAGAGACUUGGUUUUUUG [C62G C123A] | -1.01
GACCAAUCUGCCCUCAGAGCUCGAGAACAUCUUCGGAUGCAGAGGAGGCAGGCUUCGGUGGUGCGAUAGCGCCAACGUCCUCAACUUCCAAUGCAUCCCUCCACAUGAUAAUGCCUGAAGAGCCUUGGGUUUUUG [C62U C86U A100U G110A U129G] | -4.42
GACCAAUCUGCCCUCAGAGCUCGAGAACAUCUUCGGAUGCAGAGGAGGCAGGCUUCGGUGGUGCGAUAGCGCCAACGUCCUCAACCUCCAAUGCAUCCCACCAAAUGAUGAUGCCUGAAGAGCCUUGGUUUUUUG [C62U C104A] | -1.29
GACCAAUCUGCCCUCAGAGCUCGAGAACAUCUUCGGAUGCAGAGGAGGCAGGCUUCGGUGGUGCGAUAGCGCCAACGUCCUCAGCCUCCAAUGCAUCCCAACACAUGAUGAUGCCUGAAGAGUCUUGGUUUUUUG [C62U A84G C101A C123U] | -1.03
GACCAAUCUGCCCUCAGAGCUCGAGAACAUCUUCGGAUGCAGAGGAGGCAGGCUUCGGUGGUGCGAUAGCGCCAACGUCCUCAACCUCCAAUGCAUGCCACCACAUGAUGAUGCCUGAAGUGCCUUGGUUUUUUG [C62U C97G A121U] | -2.46
GACCAAUCUGCCCUCAGAGCUCGAGAACAUCUUCGGAUGCAGAGGAGGCAGGCUUCGGUGGGGCGAUAGCGCCAACGUCCUCAACCUCCAAUGCAUCCCACCACAUGAUGAUGCUUGAAGAUCCUUGGUUUUUUG [C62G C115U G122U] | -5.8
GACCAAUCUGCCCUCAGAGCUCGAGAACAUCUUCGGAUGCAGAGGAGGCAGGCUUCGGUGGUGCGAUAGCGCCAACGUCCUCAACCUGCAAUGCAUCCCACCACAUGAUGAUGCCUGAAGAGCCUUGGUUUUUUG [C62U C88G] | -0.561
GACCAAUCUGCCCUCAGAGCUCGAGAACAUCUUCGGAUGCAGAGGAGGCAGGCUUCGGUGGUGCGAUAGUGCCAACGUCCUCAACCUCCAAUGCAUCCCACCACAUGAUGAUGCCUGAAGAGCCUUGGUUUUAUG [C62U C70U U133A] | 0.14
GACCAAUCUGCCCUCAGAGCUCGAGAACAUCUUCGGAUGCAGAGGAGGCAGGCUUCGGUGGGGCGAUAGCGCCAACGUCCUCAACCUCCAAUGCAUCCCACCACAAGGUGAUGCAUGAAGAGACUUGGUUUUUUG [C62G U106A A108G C115A C123A] | -5.43

Variant | polymerase ribozyme fitness (log ratio)
GACCAAUCUGCCCUCAGAGCUCGAGAACAUCUUCGGAUGCAGAGGAGGCAGGCUUCGGUGGUGCGAUAGCGCCAACGUCCUCAACCUCCAAUGCGCCCCACCACAUGAUGAUGCCUGAAGAGCCUUGGUUUUUUG [C62U A95G U96C] | -1.53
GACCAAUCUGCCCUCAGAGCUCGAGAACAUCUUCGGAUGCAGAGGAGGCAGGCUUCGGUGGGGCGAUAGCGCCAACGUCCUCAACCUCCAAUGCAUCCCACCACAUGAUGAUGCCUCAAGAGCCUUGGUUUUUUG [C62G G117C] | -5.09
GACCAAUCUGCCCUCAGAGCUCGAGAACAUCUUCGGAUGCAGAGGAGGCAGGCUUCGGUGGGGCGAUAGCGCCAACGUCCUCAACCUCCAAUGCAUCCCACCACAUGAUGAUGCCUUAAGAGCCUUGGUUUUUUG [C62G G117U] | -3.34
GACCAAUCUGCCCUCAGAGCUCGAGAACAUCUUCGGAUGCAGAGGAGGCAGGCUUCGGUGGUGCGUUAGCGCGAACGUCCUCAACCUCCAAUGCAUCCCACCAUAUGAUGACGCCUGAAGAGCCUUGGUUUUUUG [C62U A66U C73G C104U U112C] | -1.37
GACCAAUCUGCCCUCAGAGCUCGAGAACAUCUUCGGAUGCAGAGGAGGCAGGCUUCGGUGGGGCGAUAGCGCCAACGUCCUCAACCUCCAAUGCAUCCCACCACAUGAUGAUGCCUGAAGAGCCUUGGUUUAUUG [C62G U132A] | -0.911
GACCAAUCUGCCCUCAGAGCUCGAGAACAUCUUCGGAUGCAGAGGAGGCAGGCUUCGGUGGUGCGAUAGCGCCAACGUCCUCAACCUCCACUGCAUCCCACCACAUGAUGAUGCCUGAAGAGCCUUGGUUUUUUG [C62U A91C] | -1.43
GACCAAUCUGCCCUCAGAGCUCGAGAACAUCUUCGGAUGCAGAGGAGGCAGGCUUCGGUGGUGCGAUAGCGCCAACGUCCUCAAACUCCAAUGCAUCCCACCACAUGAUGAUGCCUGAAGAGCCUUGGUUUUUUG [C62U C85A] | -2.09
GACCAAUCUGCCCUCAGAGCUCGAGAACAUCUUCGGAUGCAGAGGAGGCAGGCUUCGGUGGUGCGAUAGCGCCAACGUCCUCAAUCUCCAAUGCAUCCCACCACAUGAUGAUGCCUGAAGAGACUUGGUUUUUUG [C62U C85U C123A] | -1.23
GACCAAUCUGCCCUCAGAGCUCGAGAACAUCUUCGGAUGCAGAGGAGGCAGGCUUCGGUGGGGCGAUAGCGCCAACGUCCUCAACCUCCAAUGCAUCCCACCACAUGAUGAUGCCUGAAGAGCCUUGGUUUUAUG [C62G U133A] | -1.22
GACCAAUCUGCCCUCAGAGCUCGAGAACAUCUUCGGAUGCAGAGGAGGCAGGCUUCGGUGGGGCGAUAGCGCCAACGACCUCAACCUCCAAUGCAUCCCACCACAAGAUGAUGCCUGAAGAGCCUUGGUUUUUUG [C62G U78A U106A] | -1.75
GACCAAUCUGCCCUCAGAGCUCGAGAACAUCUUCGGAUGCAGAGGAGGCAGGCUUCGGUGGGGCGAUAGCGCCAACGUCCUCAACCUCCAAUGCAUCCCACCACAUGAUGAUCCCUGAAGAGCCUUGGUUUUUUG [C62G G113C] | -4.48
GACCAAUCUGCCCUCAGAGCUCGAGAACAUCUUCGGAUGCAGAGGAGGCAGGCUUCGGUGGUGCGAUAGCGGCAACGUCCUCAACCUCCAAUGAAUCCCACCACAUGAUGAUGCCUGAAGAGCCUUGGUUUUUUG [C62U C72G C94A] | -3.29
GACCAAUCUGCCCUCAGAGCUCGAGAACAUCUUCGGAUGCAGAGGAGGCAGGCUUCGGUGGUGCGAUAGCGCCAACGUCCUCAACCUCCAAUGCAUCCCAGCACAUGAUGAUGCCUGAAGAGCCUUGGUUUUUUG [C62U C101G] | -1.35
GACCAAUCUGCCCUCAGAGCUCGAGAACAUCUUCGGAUGCAGAGGAGGCAGGCUUCGGUGGUGCGAUAGCGCCAACGUCCUCAACCUCCAAUGCAUCCCAACACAUGAUGAUGCCUGAAGAGCCUUGGUUUUUUG [C62U C101A] | -0.746
GACCAAUCUGCCCUCAGAGCUCGAGAACAUCUUCGGAUGCAGAGGAGGCAGGCUUCGGUGGUGCGAUAGCGCCAACGUCCUCAACCUCCAAUGCAUCCCCCCACAUGAUGACGCCUGAAGAGCCUUGGUUUUUUG [C62U A100C U112C] | -1.92
GACCAAUCUGCCCUCAGAGCUCGAGAACAUCUUCGGAUGCAGAGGAGGCAGGCUUCGGUGGUGCGAUAGCGCCAACGUCCUAAACCUCCAAUGCAUCCCACCACAUGAUGAUGCCUGAAGAGCCUUGGUUUUUUG [C62U C82A] | -1.44
GACCAAUCUGCCCUCAGAGCUCGAGAACAUCUUCGGAUGCAGAGGAGGCAGGCUUCGGUGGUGCGAUAGAGCCAACGUCCUCAACCUCCAAUGGAUCCCACCACAUGAUGAUGCCUGAAGAGCCUUGGUUUUUUG [C62U C70A C94G] | -3.73
GACCAAUCUGCCCUCAGAGCUCGAGAACAUCUUCGGAUGCAGAGGAGGCAGGCUUCGGUGGUGCGGUAGCGCCAACGUCCUCAACCUCCAAUGCAUCCCUCCACAUGAUGAUGCCUGAAGAGCCUUGGUUUUUUG [C62U A66G A100U] | -2.66
GACCAAUCUGCCCUCAGAGCUCGAGAACAUCUUCGGAUGCAGAGGAGGCAGGCUUCGGUGGGGCGAUAGCGCCAACGUCCUCAACCUCCAAUGCAUCCCACCACAUGAUCAUGCCUGAAGAGCCUUGGUUUUUUG [C62G G110C] | -6.06
GACCAAUCUGCCCUCAGAGCUCGAGAACAUCUUCGGAUGCAGAGGAGGCAGGCUUCGGUGGUGCGAUAGCGCCAACGUCCUCAACCUCCAUUGCAUCCCACCACAUGAUGAUGCCUGAAAAGCCUUGGUUUUUUG [C62U A91U G120A] | -2.6
GACCAAUCUGCCCUCAGAGCUCGAGAACAUCUUCGGAUGCAGAGGAGGCAGGCUUCGGUGGGGCGAUAGCGCCAACGUCCUCAACCUCCAAUGCAUCCCACCACAUGAUAAUGCCUGAAGAGCCUGGGUUUUUUG [C62G G110A U126G] | -5.29
